These results are taken from paper PMC8800519 (Journal of Molecular Cell Biology, 2021).

The test has as its target recombinant mouse α1C/β2A tubulin heterodimer (mouse, UniProt P68373;Q7TMM9). As to the kind of experiment: single-molecule TIRF microscopy.

recombinant mouse α1C/β2A tubulin heterodimer, sequence (P68373 whole entry, one chain of several): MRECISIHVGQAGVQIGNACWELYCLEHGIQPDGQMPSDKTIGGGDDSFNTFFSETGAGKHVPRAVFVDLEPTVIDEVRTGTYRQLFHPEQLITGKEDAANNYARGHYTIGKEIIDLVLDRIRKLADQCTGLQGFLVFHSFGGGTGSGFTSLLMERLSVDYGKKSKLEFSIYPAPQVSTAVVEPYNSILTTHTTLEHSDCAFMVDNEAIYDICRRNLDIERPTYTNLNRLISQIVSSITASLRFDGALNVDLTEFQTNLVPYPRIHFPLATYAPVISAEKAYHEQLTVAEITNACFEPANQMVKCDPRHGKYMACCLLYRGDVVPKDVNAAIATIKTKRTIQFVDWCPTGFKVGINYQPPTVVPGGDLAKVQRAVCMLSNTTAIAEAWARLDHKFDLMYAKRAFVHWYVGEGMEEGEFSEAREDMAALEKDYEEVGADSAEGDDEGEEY

B1: EB1-GFP (full-length human EB1 with a GFP tag) (natural protein)
chain: MAVNVYSTSVTSDNLSRHDMLAWINESLQLNLTKIEQLCSGAAYCQFMDMLFPGSIALKKVKFQAKLEHEYIQNFKILQAGFKRMGVDKIIPVDKLVKGKFQDNFEFVQWFKKFFDANYDGKDYDPVAARQGQETAVAPSLVAPALNKPKKPLTSSSAAPQRPISTQRTAAAPKAGPGVVRKNPGVGNGDDEAAELMQQVNVLKLTVEDLEKERDFYFGKLRNIELICQENEGENDPVLQRIVDILYATDEGFVIPDEGGPQEEQEEY
Consider B1, for which the binding result is “binds”.
